Positions count from the first letter of the chain named.
B1: H4B4: natural Gardnerella prophage endolysin from strain Gv5-1 (protein)
chain: MSKKGIDVSEWQGDIDFNAVKASGVEFVIIRAGYGIGCKDKWFEQNYRKAKTCGLDVGAYWYSYANSGFEAAEEAQSCVNMLSGKSFEYPVYFDLEEKSQLNRGRAFCDSLITSFCSKLETYGYYAGFYTSLSVVNNLVSAHVRDRYALWIAQWNTHCSYQGSYGLWQYSSSGSVPGVAGRVDMDYAYVDYPSIIKNVGLNGCKNGGSDQATRTSSIDEVAREVINGAWGNGNERKQRLTSAGYDYASVQNKVNKLLGVKAYRKSVDELAREVIRGTWGNGNERKQRLAQAGYDYDTVQKRVNELL
modifications: EL4_strain_Gv5-1
B2: H1B1: natural Gardnerella prophage endolysin from strain HMP9231 (protein)
chain: MSKKGIDVSEWQGDIDFNAVKASGVEFVIIRAGYGIGCKDKWFEQNYRKAKTAGLDVGAYWYSYANSGFEAAEEAQSLMNMLSGKSFEYPVYFDLEEKSQLNRGRAFCDSLITSFCNKLEACGYYAGFYTSLSTANNLVSAHVRNRYALWIAQWNTHCNYQGSYGLWQYSSNGSVPGVAGRVDMDYAYVDYPSIIKNAGLNGCKNGGSDQAARTSSIDEVAREVINGAWGNGSTRKQRLTSAGYDYASVQNKVNELLGVKACRKSVDELAREVIRGAWGNGSTRKQRLAQAGYDYDTVQKRVNELL
modifications: EL1_strain_HMP9231
notes: natural Gardnerella prophage endolysin from strain HMP9231
B3: H3B3: natural Gardnerella prophage endolysin from strain Gv18-4 (protein)
chain: MSKKGIDVSVWQGDIDFNSVKASGVEFVIIRAGYGIGHKDKWFEENYRKAKTAGLDVGSYWYSYASSAGEASEEAQSCVNILSGKSFEYPIYFDLEEKSQLNRGRDFCDSLITSFCNKLEACGYYAGFYTSLSVANNLVSSHVRDRYALWIAQWNTHCSYQGSYGLWQYSSSGSVNGIAGRVDMDYAYVDYPSVIKNAGLNGYQNGGSYTAPQTSSIDEVAREVINGDWGNGNDRKNRLISAGYDYASVQNKVNELLGVKAYRKSVDELAREVIRGTWGNGSMRKHRLTQAGYDYDAVQKRVNELL
modifications: EL3_strain_Gv18-4
B4: H2B2: natural Gardnerella prophage endolysin from strain Gv18-4 (protein)
chain: MSKRGIDVSEWQGDIDFNAVKASGVEFVIIRAGYGIGCKDKWFEQNYRKAKTCGLDVGAYWYSYANSGFEAAEEAQSCVNMLSGKSFEYPVYFDLEEKSQLNRGRAFCDSLITGFCNKLESCGYYAGFYTSLSTANNLVSAHVRNRYALWIAQWNTHCSYQGSYGLWQYSSSGSVPGVAGRVDMDYAYVDYPSIIKNVGLNGCKNGGSDQAARTSSIDEVAREVINGAWGNGNERKQRLTSAGYDYASVQNKVNELLGVKACRKSVDEIAREVIRGTWGNGSTRKQRLTQAGYDYDTVQKRVNELL
modifications: EL2_strain_Gv18-4
B5: H10B10: natural Gardnerella prophage endolysin from strain G30-4 (protein)
chain: MSKRGIDVSVWQGDIDFNAVKASGVEFVIIRAGYGIGHKDKWFEENYRKAKTVGLDVGAYWYSYASSAGEASEEAQSCVNILSGKSFEYPVYFDLEEKSQLNRGRDFCDSLITSFCNKLEACGYYAGFYTSLSVANNLVSSHVRDRYALWIAQWNTHCSYQGSYGLWQYSSSGSVNGIAGRVDMDYAYVDYPSVIKNAGLNGYKNGGSYTAPQISSIDEVAREVINGDWGNGNERKQRLTSAGYDYASVQNKVNELLGVKAYRKSVDELAREVIRGTWGNGSTRKQRLTQAGYDYNAVQKRVNELL
modifications: EL10_strain_G30-4
B6: H5B5: natural Gardnerella prophage endolysin from strain JCP7276 (protein)
chain: MSKKGIDVSEWQGDIDFNAVKASGVEFVIIRAGYGIGCKDKWFEQNYRKAKTAGLDVGAYWYSYANSSSEAAEEAQSCANMLSGKSFEYPVYFDLEEKSQLNRGRAFCDSLITGFCSKLEACGYYAGFYTSLSTANNLVSAHVRNRYALWIAQWNTHCSYQGSYGLWQYSSNGSVPGVAGRVDMDYAYKDYPSIIKNAGLNGCKNGGSDQAARTSSIDEVAREVINGAWGNGNERKQRLTQAGYDYTSVQNKVNKLLGVKACRKSVDELAREVIRGTWGNGNERKNRLTQAGYDYDTVQKRVNELL
modifications: EL5_strain_JCP7276
notes: natural Gardnerella prophage endolysin from strain JCP7276
B7: H7B7: natural Gardnerella prophage endolysin from strain AMD (protein)
chain: B6 chain with S68A, G114S, A121T, C122Y, A141S, N172S
modifications: EL7_strain_AMD
notes: natural Gardnerella prophage endolysin from strain AMD

test system: G. leopoldii strain Gv_11; assay: Quantitative reduction in viable CFU assay in bacterial suspension; type: cell-based, Gardnerella leopoldii; conditions: 5 hours, pH 5.0, anaerobic, 10 ul endolysin (0.2 mg/ml where possible) + 90 ul 5e7 CFU/ml, average of triplicate
Description: The lysis activity on the four main species of Gardnerella of 91 constructs (natural and domain-swapped endolysins) was quantitatively assessed using the method described in Reference Example 2. Briefly, 90 ul 5e7 CFU/ml of the indicated strain were incubated for 5 hours at pH 5.0 under anaerobic conditions with 10 ul endolysin (concentration adjusted to 0.2 mg/ml where possible, see Table 4).
The results are shown in FIGS. 8A to 8D together with Tables 5A to 5C. In FIGS. 8A to 8D, the logarithmic Y axis depicts the count of surviving cells. The dotted line indicates the limit of detection (LOD) given by plating of 2 ul of the reaction mix (500 CFU/ml). Each combination of the natural 10 H-domains and the natural 9 B-regions was assessed, including the natural endolysins (H1B1, H2B2, H3B3, etc.), plus H6B6. […] The activity of each construct was measured on each of the 4 main Gardnerella species G. vaginalis sensu stricto, G. leopoldii, G. piotii, and G. swidsinkii. All conditions have been measured in triplicate. The survival after 5 hours incubation at pH 5.0 under anaerobic conditions with endolysins vs. buffer was measured by quantitative plating. The values indicate the log 10 of the ratio of surviving CFU for treated vs. untreated cells. The average of the triplicate measurements is used. In tables 5A and 5B, high negative log 10 values, e.g. −6.7, −5.5, −4.8 etc. are associated with high enzymatic activity, while log 10 values closer to zero or even positive log 10 values are associated with low or no enzymatic activity. […] Inversely, a reduction value of −3.7 means a 10^3.7-fold (=5012-fold) reduction of viable CFU in treated sample vs. untreated control.
(§1) Gardnerella cells were recovered from cryo stock by plating on Chocolate Agar plates (Beckton Dickinson) and incubating for 48 h at 37° C. under anaerobic conditions. For Lactobacilli, BD Schaedler/5% sheep blood agar plates were used instead. Colonies were scraped from the plate, resuspended in Hardy Broth or NYC-III-HS-5.0 at the pH as indicated, and the suspension adjusted to OD (610 or 620 nm as indicated) 0.1. It has to be noted that two Tecan Microplate readers, having respectively a 610 nm or 620 nm filter, have been used interchangeably in the experiments. Although it doesn't make any difference for the experiments, the exact wavelength used is specified in each example. If not stated otherwise, 90 μl cell suspension was mixed with 10 μl endolysin solution, for the different species/endolysin combinations, in 384-well plates. OD(610-620 nm as indicated) was measured at the beginning of the reaction and at the end, either as two measurement points or as a continuous kinetic in a Tecan F200 Microplate reader. The reactions were incubated for 5 hours (or otherwise the time indicated) at 37° C. under anaerobic, micro-aerophilic or aerobic conditions as indicated. Anaerobic conditions intend that oxygen was fully depleted from the container in which the bacteria are incubated (Sigma-Aldrich anaerobic jar or sealable lunch box) with an anaerobic sachet, and the lack of oxygen was confirmed with an anaerobic indicator inside the container. Where micro-aerophilic conditions are indicated, the candle-in-a-jar method was used (tea candle lit in an appropriate sealable container, which reduces oxygen levels until the flame dies out). Then each well was diluted in 5 steps (10^−1 to 10^−5) using 96-U-well bottom plates, and 2 μl of each dilution of each reaction mix are plated on BD Chocolate agar plates or BD Schaedler/5% sheep blood agar plates for Gardnerella and Lactobacilli, respectively, for detecting and quantifying surviving CFU. Detection plates were incubated at 37° C. for 48 hours under anaerobic conditions.

Molecule	log 10 of the ratio of surviving CFU for treated vs. untreated cells
B1	−0.5 log 10
B2	−1.3 log 10
B3	−2.0 log 10
B4	−1.1 log 10
B5	−1.6 log 10
B6	0.3 log 10
B7	−2.1 log 10

test system: Gardnerella cells; assay: Turbidity reduction (OD) assay of Gardnerella suspensions; type: cell-based; conditions: Gv_10 pH 6.0, Gv_17 pH 7.0, Gv_23 pH 7.4; aerobic, room temperature; vs buffer
Description: FIGS. 4A to 4C show three enzymatic activity assays where the enzymatic activity of natural Gardnerella prophage endolysins of the present disclosure is measured by detecting the change in turbidity of a suspension of Gardnerella cells. In FIG. 4A, the enzymatic activity of the endolysins is measured by detecting the change in turbidity of a suspension of the G. leopoldii strain Gv_10 at pH 6.0. In FIG. 4B, the enzymatic activity of the endolysins is measured by detecting the change in turbidity of a suspension of the G. piotii strain Gv_17 at pH 7.0. In FIG. 4C, the enzymatic activity of the endolysins is measured by detecting the change in turbidity of a suspension of the G. swidsinskii strain Gv_23 at pH 7.4. Treatment was conducted in a medium adjusted to the appropriate pH in a photometric cuvette against buffer. Then, the change in turbidity was assessed by measuring the optical density (OD) at 600 nm. As a result, the drop in turbidity was more pronounced for the endolysin treated groups than for the buffer, indicating enzymatic activity.
To test the activity of the purified endolysins, the turbidity change of Gardnerella suspensions (see Table 2) was measured at 610-620 nm using essentially the method described in Reference Example 2, where 95 ul of bacterial suspension in Hardy Broth at the indicated pH was mixed with 5 ul of endolysin solution in a photometric cuvette under aerobic conditions at room temperature. In turbidity reduction assays, a decrease in light scattering (i.e., turbidity reduction) of a suspension of live cells can be used in a spectrophotometer to assay the activity of peptidoglycan hydrolases. The reduction in optical density over time (minutes) can be used to calculate a rate of hydrolysis. Results are compared to a “no-enzyme added, buffer only” control preparation treated identically for the same period of time. In this manner, a specific activity of the enzyme preparation can be reported as ΔOD/time/ul lysin protein. […] As explained above, due to the low content of peptidoglycan in the cell wall, the fact that a peptidoglycan-degrading enzyme such as the identified endolysins could efficiently lyse the bacterial cell walls was an unexpected and surprising discovery.
as §1, with “Then each well was diluted in 5 steps (10^−1 to 10^−5) using 96-U-well bottom plates, and 2 μl of each dilution of each reaction mix are plated on BD Chocolate agar plates or BD Schaedler/5% sheep blood agar plates for Gardnerella and Lactobacilli, respectively, for detecting and quantifying surviving CFU. Detection plates were incubated at 37° C. for 48 hours under anaerobic conditions.” left out

Molecule	enzymatic activity by drop in turbidity (capacity to lyse Gardnerella cell walls)
B1	active
B2	active
B3	active
B4	active
B5	active
B6	active
B7	active

— patent US20220315908A1, “NOVEL GARDNERELLA ENDOLYSINS AND USES THEREOF” (priority 2019, published 2022)
